Data reported in patent US20230002480A1.

Assays:
Test in all cases: cell-based or functional assay
[1] = target: HIV-1 Env of pseudovirus CNE53 (HIV-1)
[2] = target: HIV-1 Env of pseudovirus Q461.e2 (HIV-1)
[3] = target: HIV-1 Env of pseudovirus MS208.A1 (HIV-1)
[4] = target: HIV-1 Env of pseudovirus Q259.d2.17 (HIV-1)
[5] = target: HIV-1 Env of pseudovirus QH0692.42 (HIV-1)
[6] = target: HIV-1 Env of pseudovirus 62357_14_D3_4589 (HIV-1)
[7] = target: HIV-1 Env of pseudovirus ZM249M.PL1 (HIV-1)
[8] = target: HIV-1 Env of pseudovirus Ce2010_F5 (HIV-1)
[9] = target: HIV-1 Env of pseudovirus REJO4541.67 (HIV-1)
[10] = target: HIV-1 Env of pseudovirus Ce2060_G9 (HIV-1)
[11] = target: HIV-1 Env of pseudovirus T257-31 (HIV-1)
[12] = target: HIV-1 Env of pseudovirus 191084 B7-19 (HIV-1)
[13] = target: HIV-1 Env of pseudovirus Du156.12 (HIV-1)
[14] = target: HIV-1 Env of pseudovirus WEAU_d15_410_787 (HIV-1)
[15] = target: HIV-1 Env of pseudovirus TRO.11 (HIV-1)
[16] = target: HIV-1 Env of pseudovirus 3365.v2.c2 (HIV-1)
[17] = target: HIV-1 Env of pseudovirus PVO.4 (HIV-1)
[18] = target: HIV-1 Env of pseudovirus ZM214M.PL15 (HIV-1)
[19] = target: HIV-1 Env of pseudovirus Du422.1 (HIV-1)
[20] = target: HIV-1 Env of pseudovirus HIV-16845-2.22 (HIV-1)
[21] = target: HIV-1 Env of pseudovirus Ce0682_E4 (HIV-1)
[22] = target: HIV-1 Env of pseudovirus HIV-0013095-2.11 (HIV-1)

10-1074 (antibody)
IC50, titer in TZM.bl cells [1]: 0.039 µg/mL | IC80, titer in TZM.bl cells [1]: 0.141 µg/mL | IC50, titer in TZM.bl cells [2]: > 50 µg/mL | IC80, titer in TZM.bl cells [2]: > 50 µg/mL | IC50, titer in TZM.bl cells [3]: > 50 µg/mL | IC80, titer in TZM.bl cells [3]: > 50 µg/mL | IC50, titer in TZM.bl cells [4]: > 50 µg/mL | IC80, titer in TZM.bl cells [4]: > 50 µg/mL | IC50, titer in TZM.bl cells [5]: 0.191 µg/mL | IC80, titer in TZM.bl cells [5]: 0.929 µg/mL | IC50, titer in TZM.bl cells [6]: > 50 µg/mL | IC80, titer in TZM.bl cells [6]: > 50 µg/mL | IC50, titer in TZM.bl cells [7]: > 50 µg/mL | IC80, titer in TZM.bl cells [7]: > 50 µg/mL | IC50, titer in TZM.bl cells [8]: > 50 µg/mL | IC80, titer in TZM.bl cells [8]: > 50 µg/mL | IC50, titer in TZM.bl cells [9]: > 50 µg/mL | IC80, titer in TZM.bl cells [9]: > 50 µg/mL | IC50, titer in TZM.bl cells [10]: > 50 µg/mL | IC80, titer in TZM.bl cells [10]: > 50 µg/mL | IC50, titer in TZM.bl cells [11]: > 50 µg/mL | IC80, titer in TZM.bl cells [11]: > 50 µg/mL | IC50, titer in TZM.bl cells [12]: 0.032 µg/mL | IC80, titer in TZM.bl cells [12]: 0.128 µg/mL | IC50, titer in TZM.bl cells [13]: 0.015 µg/mL | IC80, titer in TZM.bl cells [13]: 0.076 µg/mL | IC50, titer in TZM.bl cells [14]: 0.104 µg/mL | IC80, titer in TZM.bl cells [14]: 0.375 µg/mL | IC50, titer in TZM.bl cells [15]: 0.008 µg/mL | IC80, titer in TZM.bl cells [15]: 0.057 µg/mL | IC50, titer in TZM.bl cells [16]: 0.131 µg/mL | IC80, titer in TZM.bl cells [16]: 0.45 µg/mL | IC50, titer in TZM.bl cells [17]: 0.074 µg/mL | IC80, titer in TZM.bl cells [17]: 0.36 µg/mL | IC50, titer in TZM.bl cells [18]: 0.174 µg/mL | IC80, titer in TZM.bl cells [18]: 2.37 µg/mL | IC50, titer in TZM.bl cells [19]: 0.045 µg/mL | IC80, titer in TZM.bl cells [19]: 0.166 µg/mL | IC50, titer in TZM.bl cells [20]: 1.17 µg/mL | IC80, titer in TZM.bl cells [20]: 5.83 µg/mL | IC50, titer in TZM.bl cells [21]: > 50 µg/mL | IC80, titer in TZM.bl cells [21]: > 50 µg/mL | IC50, titer in TZM.bl cells [22]: > 50 µg/mL | IC80, titer in TZM.bl cells [22]: > 50 µg/mL
